Laboratory results taken from patent US20100104530A1 (published 2010).
Positions count from the first letter of the chain named.

Tests used:
[1] = target: T1, VPAC1 receptor of mouse bone marrow-derived CD41/61+ megakaryocytes (mouse, UniProt P97751 31-459); test: immunoblot of mouse bone marrow megakaryocytes
T1 construct: whole, on cells; Detected by immunoblot of megakaryocytes and addressed on living megakaryocytes in the cAMP assays; also called VPAC1 receptor on the murine megakaryocytes
T1 sequence (looked up): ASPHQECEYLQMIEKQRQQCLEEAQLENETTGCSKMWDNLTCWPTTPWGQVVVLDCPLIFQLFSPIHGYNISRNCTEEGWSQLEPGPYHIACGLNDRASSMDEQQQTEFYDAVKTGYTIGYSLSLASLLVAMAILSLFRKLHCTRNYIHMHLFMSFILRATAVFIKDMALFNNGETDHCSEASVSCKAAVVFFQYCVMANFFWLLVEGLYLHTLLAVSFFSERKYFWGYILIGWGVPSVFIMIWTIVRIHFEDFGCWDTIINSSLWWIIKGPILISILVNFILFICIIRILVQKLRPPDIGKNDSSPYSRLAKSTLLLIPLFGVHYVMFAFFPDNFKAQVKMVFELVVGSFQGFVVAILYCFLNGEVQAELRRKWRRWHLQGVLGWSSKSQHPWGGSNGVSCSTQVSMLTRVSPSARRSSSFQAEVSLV

[2] = target: T2, GST fusion of VPAC1 variant 4-2 (amino acids 231-457 of SEQ ID NO:15) (human, UniProt P32241 231-457); test: western blot on GST-fused VPAC1 deletion variants
T2 construct: not shown: GST carrier and the pGEX vector linker
T2 sequence: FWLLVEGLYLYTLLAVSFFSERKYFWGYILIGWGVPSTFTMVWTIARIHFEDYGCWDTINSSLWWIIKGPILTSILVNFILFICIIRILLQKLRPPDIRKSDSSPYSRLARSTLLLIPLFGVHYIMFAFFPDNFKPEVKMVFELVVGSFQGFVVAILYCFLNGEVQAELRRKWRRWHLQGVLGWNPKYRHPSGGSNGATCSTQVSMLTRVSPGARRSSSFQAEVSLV
Procedure: (§1) For the epitope mapping of 23A11, several VPAC1 deletion variants were fused to GST and expressed. Binding of 23A11 to the VPAC1 deletion variants was tested by western blotting.
(§2) VPAC1 variant 4-2 (and, to a lesser extent, variant 3-2) was recognized by 23A11. Since this protein contains the second as well as the third extracellular loop of VPAC1, both loops (extracellular loop 2: SEQ ID NO:1; extracellular loop 3:SEQ ID NO:1) were made as GST fusion proteins and tested in western blotting. The murine antibody 23A11 was binding to each of these loops.

[3] = target: T3, GST fusion of VPAC1 variant 3-2 (amino acids 123-457 of SEQ ID NO:15) (human, UniProt P32241 123-457); test: western blot on GST-fused VPAC1 deletion variants
T3 construct: not shown: GST carrier and the pGEX vector linker
T3 sequence: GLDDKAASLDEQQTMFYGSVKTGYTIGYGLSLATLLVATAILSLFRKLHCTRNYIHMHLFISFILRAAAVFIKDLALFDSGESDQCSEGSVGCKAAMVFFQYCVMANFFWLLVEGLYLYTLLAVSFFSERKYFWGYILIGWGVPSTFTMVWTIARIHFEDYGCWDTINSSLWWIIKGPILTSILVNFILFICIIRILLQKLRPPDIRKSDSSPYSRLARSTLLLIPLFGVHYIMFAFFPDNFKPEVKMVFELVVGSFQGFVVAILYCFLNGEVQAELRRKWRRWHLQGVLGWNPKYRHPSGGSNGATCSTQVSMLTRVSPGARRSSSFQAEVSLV
Procedure: as §1, §2

[4] = target: T4, GST fusion of VPAC1 extracellular loop 2 (human); test: western blot on GST fusion of extracellular loop 2
T4 construct: also called isolated extracellular loop 2 of the VPAC1 receptor; not shown: glutathione-S-transferase (GST)
T4 chain: IHFEDYGCWDTINSSLWW

[5] = target: T5, GST fusion of VPAC1 extracellular loop 3 (human); test: western blot on GST fusion of extracellular loop 3
T5 construct: also called isolated extracellular loop 3 of the VPAC1 receptor; not shown: glutathione-S-transferase (GST)
T5 chain: PDNFKPEVKMLFE

[6] = target: T6, GST-VPAC1 fusion protein (full length human VPAC1) (human, UniProt P08515 1-218 = GST); test: SPR (BIAcore 1000), GST-VPAC1 immobilised on CM5, antibody injected, 1:1 Langmuir fit; first batch; first of two batches of murine 23A11
T6 construct: also called recombinant VPAC1
Procedure: (§3) For kinetic binding analysis of GST-VPAC1 with the GST-VPAC1-antibodies, we used a BIAcore surface plasmon resonance system at 25° C. These interactions were performed on a BIAcore 1000. GST-VPAC1 was covalently immobilized on a CM5 sensorchip (carboxylated dextran matrix) after activation with a 1:1 mixture of 1-ethyl-3-(3-dimethylaminopropyl)carbodiimide and N-hydroxysuccinimide. The remaining active sites on the chip were blocked by 1.0 M ethanolamine-HCl at pH 8.5. To perform binding assays with the GST-VPAC1-antibodies, various concentrations (ranging from 250 nm to 5 nm) of murine 23A11 were injected over the immobilized GST-VPAC-1 at a flow rate of 30 μl/min. This was performed in a running buffer consisting of 0.01 M HEPES at pH 7.4, 0.15M NaCl, 3 mM EDTA and 0.005% Surfactant P20 (or Tween 20). The sensorgrams were evaluated using the BIAevaluation 4.1 software. The rate constants kₐ and kd and the dissociation constant KD were determined by using a global fit with a Langmuir 1:1 binding model with baseline drift.

[7] = target: T6, GST-VPAC1 fusion protein (full length …); test: SPR (BIAcore 1000), GST-VPAC1 immobilised on CM5, antibody injected, 1:1 Langmuir fit; second batch; second of two batches of murine 23A11
Procedure: as §3

[8] = target: T6, GST-VPAC1 fusion protein (full length …); test: SPR (BIAcore 1000), GST-VPAC1 immobilised on CM5, 1:1 Langmuir fit; humanized 23A11, isotype not stated

B1: murine anti-VPAC1 monoclonal antibody 23A11 (antibody, V domains shown)
VH: EVQLQESGPSLVKPSQTLSLTCSVTGDSITSGYWNWIRKFPGNKLEYMGYIRYSGSTYYSPALKSRFSITRDTSKNQYYLQLNSVTTEDTATYYCSNWAYWGQGTLVTVSA
VL: DIVITQDELSNPVTSGESVSISCRSSKSLLYKDGKTYLNWFLQRPGQSPQLLIYLMSTRASGVSDRFSGSGSGTDFTLEISRVKAEDVGVYYCQQLVEYPLTFGAGTKLELK
notes: Mouse monoclonal antibody from a hybridoma; also called murine 23A11; anti-VPAC1 receptor antibody 23A11
B1: binds [1]; binds [2]; binds [3]. The binding result [4] was “binds”, the binding result [5] was “binds” and the Kd [6] was 28.3 nM. For the same binder, the Kd [7] was 19.9 nM.

B2: humanized anti-VPAC1 monoclonal antibody 23A11 (antibody, V domains shown)
VH: EVQLQESGPGLVKPSQTLSLTCTVSGDSITSGYWNWIRKHPGKGLEYMGYIRYSGSTYYSPSLKSRFTISRDTSKNQYSLKLSSVTAADTATYYCSNWAYWGQGTLVTVSA
VL: B1 VL with D7S, E8P, N11L, S15P, S18P, E79K, K84E, A105Q, L111I
notes: also called h23A11; rhu23A11
B2 gave a Kd [8] of 9.82 nM.
